This assay has as its target ssph2_salty sspH2 (UniProt P0CE12).

Sequence of ssph2_salty sspH2 (P0CE12 whole entry): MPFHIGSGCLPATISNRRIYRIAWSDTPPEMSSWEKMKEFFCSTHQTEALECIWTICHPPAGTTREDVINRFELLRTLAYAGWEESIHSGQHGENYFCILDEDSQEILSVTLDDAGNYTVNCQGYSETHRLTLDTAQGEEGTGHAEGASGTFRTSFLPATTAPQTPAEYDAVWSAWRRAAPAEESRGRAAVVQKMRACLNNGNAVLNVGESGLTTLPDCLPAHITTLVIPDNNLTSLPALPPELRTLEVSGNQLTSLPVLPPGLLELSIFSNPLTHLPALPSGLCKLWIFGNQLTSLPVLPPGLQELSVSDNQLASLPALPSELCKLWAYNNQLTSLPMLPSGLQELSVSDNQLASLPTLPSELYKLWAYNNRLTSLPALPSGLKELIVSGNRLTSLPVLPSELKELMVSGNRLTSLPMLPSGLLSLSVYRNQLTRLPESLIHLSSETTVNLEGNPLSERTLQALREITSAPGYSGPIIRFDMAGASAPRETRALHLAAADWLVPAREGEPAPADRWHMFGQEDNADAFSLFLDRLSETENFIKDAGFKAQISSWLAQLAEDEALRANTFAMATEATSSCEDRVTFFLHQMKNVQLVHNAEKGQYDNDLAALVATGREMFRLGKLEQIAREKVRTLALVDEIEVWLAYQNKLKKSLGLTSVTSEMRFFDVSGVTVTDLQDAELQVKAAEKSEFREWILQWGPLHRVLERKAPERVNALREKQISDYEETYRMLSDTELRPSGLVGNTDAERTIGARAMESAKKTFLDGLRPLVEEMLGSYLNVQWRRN
Sequence of Ubiquitin-conjugating enzyme E2 D3 (Homo sapiens), P61077 A96D (P61077 whole entry A96D): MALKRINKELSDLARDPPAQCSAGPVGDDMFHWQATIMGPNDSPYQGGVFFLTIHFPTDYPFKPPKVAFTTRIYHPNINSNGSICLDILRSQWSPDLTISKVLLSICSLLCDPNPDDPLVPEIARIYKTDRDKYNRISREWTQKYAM

Turning to “Ubiquitin-conjugating enzyme E2 D3 (Homo sapiens), P61077 A96D”, the “effect of a mutation on the interaction” value is recorded as “decreasing interaction”.

The values above are taken from IntAct's records for PubMed 20133640.
